{"source": "patent US20190194664", "system": "eGFP-Polη", "data": [{"substance": "Rad18 mutant lacking the residues phosphorylated by the Cdc7 kinase (Rad18Δ401-445)", "values": [{"measurement": "suppression of UV-dependent Chk1 phosphorylation", "result": "this mutant did not either suppress Chk1 phosphorylation"}]}]}
